B1: 1-phosphatidylinositol 4,5-bisphosphate phosphodiesterase gamma-1 (Homo sapiens), P19174 (parent)
chain: MAGAASPCANGCGPGAPSDAEVLHLCRSLEVGTVMTLFYSKKSQRPERKTFQVKLETRQITWSRGADKIEGAIDIREIKEIRPGKTSRDFDRYQEDPAFRPDQSHCFVILYGMEFRLKTLSLQATSEDEVNMWIKGLTWLMEDTLQAPTPLQIERWLRKQFYSVDRNREDRISAKDLKNMLSQVNYRVPNMRFLRERLTDLEQRSGDITYGQFAQLYRSLMYSAQKTMDLPFLEASTLRAGERPELCRVSLPEFQQFLLDYQGELWAVDRLQVQEFMLSFLRDPLREIEEPYFFLDEFVTFLFSKENSVWNSQLDAVCPDTMNNPLSHYWISSSHNTYLTGDQFSSESSLEAYARCLRMGCRCIELDCWDGPDGMPVIYHGHTLTTKIKFSDVLHTIKEHAFVASEYPVILSIEDHCSIAQQRNMAQYFKKVLGDTLLTKPVEISADGLPSPNQLKRKILIKHKKLAEGSAYEEVPTSMMYSENDISNSIKNGILYLEDPVNHEWYPHYFVLTSSKIYYSEETSSDQGNEDEEEPKEVSSSTELHSNEKWFHGKLGAGRDGRHIAERLLTEYCIETGAPDGSFLVRESETFVGDYTLSFWRNGKVQHCRIHSRQDAGTPKFFLTDNLVFDSLYDLITHYQQVPLRCNEFEMRLSEPVPQTNAHESKEWYHASLTRAQAEHMLMRVPRDGAFLVRKRNEPNSYAISFRAEGKIKHCRVQQEGQTVMLGNSEFDSLVDLISYYEKHPLYRKMKLRYPINEEALEKIGTAEPDYGALYEGRNPGFYVEANPMPTFKCAVKALFDYKAQREDELTFIKSAIIQNVEKQEGGWWRGDYGGKKQLWFPSNYVEEMVNPVALEPEREHLDENSPLGDLLRGVLDVPACQIAIRPEGKNNRLFVFSISMASVAHWSLDVAADSQEELQDWVKKIREVAQTADARLTEGKIMERRKKIALELSELVVYCRPVPFDEEKIGTERACYRDMSSFPETKAEKYVNKAKGKKFLQYNRLQLSRIYPKGQRLDSSNYDPLPMWICGSQLVALNFQTPDKPMQMNQALFMTGRHCGYVLQPSTMRDEAFDPFDKSSLRGLEPCAISIEVLGARHLPKNGRGIVCPFVEIEVAGAEYDSTKQKTEFVVDNGLNPVWPAKPFHFQISNPEFAFLRFVVYEEDMFSDQNFLAQATFPVKGLKTGYRAVPLKNNYSEDLELASLLIKIDIFPAKENGDLSPFSGTSLRERGSDASGQLFHGRAREGSFESRYQQPFEDFRISQEHLADHFDSRERRAPRRTRVNGDNRL

Variants of: B1
Settings: with akt1_human AKT1, P31749
Chain of akt1_human AKT1, P31749 (P31749 whole entry): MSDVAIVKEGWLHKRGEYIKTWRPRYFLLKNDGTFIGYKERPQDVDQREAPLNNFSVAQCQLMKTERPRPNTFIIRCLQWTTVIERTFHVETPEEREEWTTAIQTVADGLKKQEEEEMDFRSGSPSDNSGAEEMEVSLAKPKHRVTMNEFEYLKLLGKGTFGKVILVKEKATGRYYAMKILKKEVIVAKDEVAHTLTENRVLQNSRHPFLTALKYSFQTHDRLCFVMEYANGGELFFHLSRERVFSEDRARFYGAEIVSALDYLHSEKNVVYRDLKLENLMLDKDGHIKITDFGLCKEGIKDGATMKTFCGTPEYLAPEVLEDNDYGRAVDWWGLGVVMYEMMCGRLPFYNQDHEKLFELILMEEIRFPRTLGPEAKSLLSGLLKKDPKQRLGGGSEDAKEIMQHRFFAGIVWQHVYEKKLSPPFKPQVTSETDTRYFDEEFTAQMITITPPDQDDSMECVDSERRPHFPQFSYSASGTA

effect of a mutation on the interaction	Variant
decreasing interaction	Y771F
disrupting interaction	Y783F

— IntAct's records for PubMed 16525023
